± gives the uncertainty stated by the source.
B1: Pyruvate dehydrogenase protein X component, mitochondrial, residues 181 to 227; numbered along this chain, O00330 (parent)
chain: RFRLSPAARNILEKHSLDASQGTATGPRGIFTKEDALKLVQLKQTGK

Variants of: B1
Assay: abundance fitness (aPCA) (normalised: wild type 0, dead -1); higher = more abundant; growth selection in yeast, the domain comes from the species named
Conditions: Homo sapiens
With RFRLSPAARNILEKHSLDASQGTATGPRGIFTKEDALTLVQLKQTGK [K38T] the abundance fitness was -0.643 ± 0.097.
Work on RFRLSPAARNILEKHSLDASQGTATGPRGIFTKEDALGLVQLKQTGK [K38G] yielded an abundance fitness of -0.354 ± 0.089.
RFRLSPAARNILEKHSLDASQGTATGPRGIFTKEDALKLVQLLQTGK [K43L] showed an abundance fitness of -0.575 ± 0.059.
RFRLSPAARNILEKHSLDASQGTATGPRGIFTKEDALKLVQLHQTGK [K43H] showed an abundance fitness of 0.299 ± 0.14.
In the case of RFRLSPAARNILEKHSLDASQGTATGPRGIFTKEDALKLVQLQQTGK [K43Q], the abundance fitness is reported as -0.057 ± 0.05.
In the case of RFRLSPAARNILEKHSLDASQGTATGPRGIFTKEDALKLVQLAQTGK [K43A], the abundance fitness is reported as -0.083 ± 0.084.
RFRLSPAARNILEKHSLDASQGTATGPRYIFTKEDALKLVQLKQTGK [G29Y] gave an abundance fitness of -1.01 ± 0.18.
Work on RFRLSPAARNILEKHSLDASQYTATGPRGIFTKEDALKLVQLKQTGK [G22Y] yielded an abundance fitness of -0.623 ± 0.08.
Variant RFRLSPAARNILEKHSLDASQQTATGPRGIFTKEDALKLVQLKQTGK [G22Q] has an abundance fitness of -0.479 ± 0.048.
In the case of RFRLSPAARNILEKHSLDASQMTATGPRGIFTKEDALKLVQLKQTGK [G22M], the abundance fitness is reported as -0.369 ± 0.051.
Work on RFRLSPAARNILEKHSLDASQVTATGPRGIFTKEDALKLVQLKQTGK [G22V] yielded an abundance fitness of -0.378 ± 0.06.
Variant RFRLSPAARNILEKHSLDASQGTATGPRGIFTKEDALKLYQLKQTGK [V40Y] has an abundance fitness of -0.295 ± 0.087.
Variant RFRLSPAARNILEKHSLDASQGTATGPRGIFTKEDALKLRQLKQTGK [V40R] has an abundance fitness of -0.439 ± 0.067.
Work on RFRLSPAARNILEKHSLDSSQGTATGPRGIFTKEDALKLVQLKQTGK [A19S] yielded an abundance fitness of -0.242 ± 0.066.
Variant RFRLSPAARNILEKHSLDPSQGTATGPRGIFTKEDALKLVQLKQTGK [A19P] has an abundance fitness of 0.249 ± 0.06.
In the case of RFRLSPAARNILEIHSLDASQGTATGPRGIFTKEDALKLVQLKQTGK [K14I], the abundance fitness is reported as -0.165 ± 0.09.
Variant RFRLSPAARNILEKHSLDASQGTATGPRGIFTKEDALKLVQLKQTYK [G46Y] has an abundance fitness of 0.219 ± 0.18.
In the case of RFRLSPAARNILEKHSLDASQGTATGPRGIFTKEDALKLVQLKQTQK [G46Q], the abundance fitness is reported as 0.249 ± 0.14.
RFRLSPAARNILEKHSLDASQGTATGPRGIFTKEDALKLVQLKQTMK [G46M] gave an abundance fitness of -0.042 ± 0.12.
In the case of RFDLSPAARNILEKHSLDASQGTATGPRGIFTKEDALKLVQLKQTGK [R3D], the abundance fitness is reported as -0.594 ± 0.13.
For RFGLSPAARNILEKHSLDASQGTATGPRGIFTKEDALKLVQLKQTGK [R3G], the abundance fitness was -0.336 ± 0.047.
With RFSLSPAARNILEKHSLDASQGTATGPRGIFTKEDALKLVQLKQTGK [R3S] the abundance fitness was -0.14 ± 0.055.
With RFHLSPAARNILEKHSLDASQGTATGPRGIFTKEDALKLVQLKQTGK [R3H] the abundance fitness was 0.04 ± 0.11.
Variant RFRLSPAARNILEKHSLDASQGTATGPRGIRTKEDALKLVQLKQTGK [F31R] has an abundance fitness of -0.455 ± 0.063.
Variant RFRLSPAARNILEKHSLDASQGTATGPRGIKTKEDALKLVQLKQTGK [F31K] has an abundance fitness of -0.423 ± 0.12.
For RFRLSPAARNILEKHSLDASQGTATGPRGITTKEDALKLVQLKQTGK [F31T], the abundance fitness was -0.171 ± 0.093.
With RFRLSPAARNILEKHSLDASQGTATGPRGIFTKEDALKLVSLKQTGK [Q41S] the abundance fitness was 0.2 ± 0.056.
In the case of RFRLSPAARNILEKHSLDASQGTATGPRGIFTKEDALKLVELKQTGK [Q41E], the abundance fitness is reported as 0.193 ± 0.07.
For RFRLSPAARNILEKHSLDASQGTATGPRGIFTKEDALKLVQHKQTGK [L42H], the abundance fitness was -0.618 ± 0.28.
Variant RFRLSPAARNILEKHSLDAQQGTATGPRGIFTKEDALKLVQLKQTGK [S20Q] has an abundance fitness of -0.242 ± 0.067.
In the case of RFRLSPAARNILEKHSLDACQGTATGPRGIFTKEDALKLVQLKQTGK [S20C], the abundance fitness is reported as -0.305 ± 0.094.
RFRLSPAARNILEKHSLDALQGTATGPRGIFTKEDALKLVQLKQTGK [S20L] gave an abundance fitness of -0.345 ± 0.049.
With RFRLSPAARNILEKHSLDAKQGTATGPRGIFTKEDALKLVQLKQTGK [S20K] the abundance fitness was -0.108 ± 0.046.
With RFRLSPAARNILEKKSLDASQGTATGPRGIFTKEDALKLVQLKQTGK [H15K] the abundance fitness was -0.42 ± 0.085.
Work on RFRLSPAARNILEKASLDASQGTATGPRGIFTKEDALKLVQLKQTGK [H15A] yielded an abundance fitness of -0.276 ± 0.069.
Variant RFRLSPAARNILEKDSLDASQGTATGPRGIFTKEDALKLVQLKQTGK [H15D] has an abundance fitness of -0.283 ± 0.06.
RFRLSPAARNILEKSSLDASQGTATGPRGIFTKEDALKLVQLKQTGK [H15S] gave an abundance fitness of -0.517 ± 0.075.
RFRLSPAARNILEKFSLDASQGTATGPRGIFTKEDALKLVQLKQTGK [H15F] gave an abundance fitness of -0.294 ± 0.077.
RFRLSPAARNILEKHSLDASQGTATGPRGIFTKEDALKLVQLKFTGK [Q44F] gave an abundance fitness of -0.328 ± 0.049.
RFRLSPAARNILEKHSLDASQGTATGPRGIFTKSDALKLVQLKQTGK [E34S] showed an abundance fitness of -0.178 ± 0.056.
Work on RFRLSPAARNILEKHSLDASQGTATGPRGIFTKGDALKLVQLKQTGK [E34G] yielded an abundance fitness of -0.323 ± 0.045.
With RFRLSPQARNILEKHSLDASQGTATGPRGIFTKEDALKLVQLKQTGK [A7Q] the abundance fitness was 0.062 ± 0.061.
RFRLSPPARNILEKHSLDASQGTATGPRGIFTKEDALKLVQLKQTGK [A7P] showed an abundance fitness of -0.697 ± 0.082.
In the case of RFRLSPHARNILEKHSLDASQGTATGPRGIFTKEDALKLVQLKQTGK [A7H], the abundance fitness is reported as -0.605 ± 0.15.
RFRLKPAARNILEKHSLDASQGTATGPRGIFTKEDALKLVQLKQTGK [S5K] showed an abundance fitness of -0.61 ± 0.065.
RFRLSPAARMILEKHSLDASQGTATGPRGIFTKEDALKLVQLKQTGK [N10M] showed an abundance fitness of -0.052 ± 0.087.
Variant RFRLSPAARAILEKHSLDASQGTATGPRGIFTKEDALKLVQLKQTGK [N10A] has an abundance fitness of 0.063 ± 0.048.
For RFRLSPAARKILEKHSLDASQGTATGPRGIFTKEDALKLVQLKQTGK [N10K], the abundance fitness was -0.014 ± 0.079.
Work on RFRLSPAARSILEKHSLDASQGTATGPRGIFTKEDALKLVQLKQTGK [N10S] yielded an abundance fitness of 0.003 ± 0.054.
In the case of RFRLSPAARNILEKHSLDASYGTATGPRGIFTKEDALKLVQLKQTGK [Q21Y], the abundance fitness is reported as -0.481 ± 0.14.
For RFRLSPAARNILEKHSLDASLGTATGPRGIFTKEDALKLVQLKQTGK [Q21L], the abundance fitness was -0.051 ± 0.046.
With RFRLSPAARNILEKHSLDASMGTATGPRGIFTKEDALKLVQLKQTGK [Q21M] the abundance fitness was -0.084 ± 0.051.
RFRLSPAARNILEKHSLDASPGTATGPRGIFTKEDALKLVQLKQTGK [Q21P] showed an abundance fitness of -0.453 ± 0.06.
Variant RFRLSPAARNILEKHSLDASNGTATGPRGIFTKEDALKLVQLKQTGK [Q21N] has an abundance fitness of -0.516 ± 0.056.
In the case of RFRLSPAARNILEKHSDDASQGTATGPRGIFTKEDALKLVQLKQTGK [L17D], the abundance fitness is reported as -0.534 ± 0.14.
